The term EC50 denotes the concentration that produces a half-maximal response. Lower therefore signals greater potency.

The values below come from patent US20220195015A1 (published 2022).

The target of assay [1] is SARS-CoV-2 receptor binding domain (RBD), wild type (SARS-CoV-2, UniProt P0DTC2 319-539). Nature of the assay: ELISA, RBD protein coated, mAb titrated. Background: In an ELISA, binding on a coated surface is turned into a signal by an enzyme label.
Assay [2] concerns the target SARS-CoV-2 spike protein receptor binding domain (RBD) (SARS-CoV-2, UniProt P0DTC2 319-539). Nature of the assay: ELISA on coated RBD protein.

B1: C064 (antibody, V domains shown)
VH: EVQLLESGGDLVQPGGSLRLSCAASGFTFSNYAMSWVRQAPGKGLEWVSAISGSGGNTYYADSVKGRFTISRDNSKNTLYLQMNSLRAEDTAVYYCAKAVHYGGNSDRRFSEPSAPFDYWGQGTLVTVSS
VL: QSALTQPASVSGSPGQSITISCTGTSSDVGSYNLVSWYQQHPGKAPKLMIYEGSKRPSGVSNRFSGSKSGNTASLTISGLQAEDEADYYCCSYAGSSTPYVFGTGTKVTVL
Turning to B1, in assay [1], the midpoint of the response, the EC50, lay at 363 ng/mL.

B2: C050 (antibody, V domains shown)
VH: EVQLVESGGGLFQPGGSLRLSCAASGFSVRNNYVSWVRQAPGKGLEWVSVIYSGGTTYYADSVKGRFTISRDISENTLYLQMNSLRAEDTAVYYCAREGDVEGLHDFWSGYSRDRYYFDYWGQGTLVTVSS
VL: QSALTQPASVSGSPGQSIIISCTGTSGDIGGYNYVSWYQQHPGKAPKLMIYDVSFRPSGVSNRFSGSKSDNTASLTISGLQAEDEADYYCSSFTGNNTRVFGTGTKVTVL
In the case of B2, the EC50 in assay [2] is 1.93 ng/mL.

B3: C052 (antibody, V domains shown)
VH: EVQLVESGGGLIRPGGSLRLSCAASGFSVSNNYMSWVRQAPGKGLEWVSVIYSGGTTYYADSVKGRFNISRDNSKNTVYLQMNSLRAEDTAVYYCAREGDVEGYYDFWSGYSRDRYYFDYWGQGALVTVSS
VL: QSALTQPASVSGSPGQSITISCTGTSSDVGGYNYVSWYQQHPGKAPKLMIYDVSNRPSGVSNRFSGSKSGNTASLTISGLQAEDEADYYCNSYTSNNTRVFGTGTKVTVL
The molecule B3 came in with an EC50 in assay [2] of 1.23 ng/mL.

B4: C054 (antibody, V domains shown)
VH: EVQLVESGGGLIQPGGSLRLSCAASGFTVSNNYMSWVRQAPGKGLEWVSVIYSGGSTYDADSVKGRFTISRDNSKNTLYLQMNSLSAEDTAVYYCAREGDVEGYYDFWSGYSRDRYYFDYWGQGTLVTVSS
VL: QSALTQPASVSGSPGQSITISCTGTSSDVGGYNYVSWYQQHPGKAPKLMIYDVSNRPSGVSNRFSGSKSGNTASLTISGLQAEDEADYYCSSYTSSSARVFGTGTKVTVL
For the molecule B4, in assay [2], the EC50 was 1.58 ng/mL.

B5: C035 (antibody, V domains shown)
VH: EVQLVESGGGLVQPGGSLRLSCAASGFIFSSYWMTWVRQAPGKGLEWVASIKYNGNERNYVDSVKGRFTISRDNARNSLFLQLNNLGAEDTAVYYCARQPESTIWYYFDYWGQGTLVTVSS
VL: SYELTQPPSVSVSPGQTARVTCSGHALPDQYTYWYQQRPGRAPVLVIYVNNQRPSGIPDRFSATTSGTTVTLTISGVQAEDEADYYCQSADSSGSYVVFGGGTKLTVL
The molecule B5 had an EC50 in assay [1] of 15.2 ng/mL.

B6: C068 (antibody, V domains shown)
VH: QVQLVESGGGVVQPGRSLRLSCVASGFSFSTYGMHWVRQAPGKGLEWVALIWSDGSNKYYGDAAEGRFTISRDNSNNTLYLQMNNLRAEDTALYYCARDHSSSSFVYYYYMDVWGKGTTVTVSS
VL: QSALTQPRSVSGSPGQSVTISCTGTSSDIGGYNYVSWYQQHPDKAPKFIIFDVSKRPSGVPDRFSGSKSGNTASLTISGLQAEDEADYYCCSYAGPYPYVFGTGTKVTVL
B6 came in with an EC50 in assay [1] of 5.46 ng/mL.

B7: C088 (antibody, V domains shown)
VH: QVQLVQSGAEAKKPGASVKVSCKTSGYTFTNYFMHWVRQAPGQGPEWMGIIDSSDGGASYAQKFQGRVTMTRDTSTSTVYMELRSLKFEDTAVYYCARASTSTTSWSDALSLGSWGQGTLVTVSS
VL: QSVLTQPPSVSGAPGQRVTISCTGSSSNIGGGSVVHWYQQLPGTAPKLLIYANSNRPSGVPDRFSGSKSGTSASLAIAGLQAEDEADYYCQSWDNGLSASGVVFGGGTKLTVL
Molecule B7 yielded an EC50 in assay [1] of 2.44 ng/mL. This EC50 is about 2.2-fold lower than that of the molecule before.

B8: C067 (antibody, V domains shown)
VH: VQLVESGGGVVQPGRSLRLSCAASGFSFRIFGMNWVRQAPGKGLDWVAGISHDGSDKYFADSVKGRFTISRDNSKNTLYLQMNSLRADDTAVYYCARDMEVDYYDRSGHYHVFHAFDIWGQGTMVTVSS
VL: DIVMTQSPDSLAVSLGARATINCKSSQSILYSSDNKSSLAWYQQKPGHPPKLLIYWASTRESGVPDRFSGSESGTDFTLTISNLQGEDVAVYYCQQYYSIPRSFGQGTKLEIK
Consider B8, for which the 50% effective concentration (EC50) in assay [1] was 6.98 ng/mL.

B9: C063 (antibody, V domains shown)
VH: EVQLVQSGAEVKKPGDSLKISCKASGYSFTRYWIGWVRQMPGKGLDWMGIIYPGDSDTRYSSSFQGQVTISADKSISTAYLQWSSLKASDTSLYYCVRRASSTNFEFWGQGTLVTVSS
VL: SYELTQPPSVSVAPGQTATITCGGNNIGSKTVHWYQQKPGQAPVVVVYDDSDRPSGIPERFSGSKSGSTATLTITRVEAGDEADYYCQVWDSTSDHYVFGTGTKVAVI
On to B9, for which, in assay [1], a half-maximal effect (EC50) was put at 414 ng/mL. Against the preceding molecule, the EC50 is about 59-fold higher.

B10: C066 (antibody, V domains shown)
VH: EVQLVESGGGLIQPGGSLRLSCAASGLLVSRNYMTWVRQAPGKGLEWVSVIYSGGSTFYADSVRGRFTISRDNSKNTLYLQMDSLRAEDTAVYYCARDVGDYYGMDVWGQGTTVTVSS
VL: DIQLTQSPAFLSASVGDRVTITCRASQGMSNYLAWYQQKPGKAPNLLIYTASTLQSGVPSRFSGSGSGTEFTLTISSLQPEDFATYYCQLLNSYPQLTFGGGTKVEIK
In turn, B10 displayed an EC50 in assay [1] of 4.2 ng/mL.

B11: C069 (antibody, V domains shown)
VH: QVQLVQSGAEVKKPGSSVNVSCKASGGTFSTYAIHWVRQAPGQGLEWMGGIIPLFHTANYAQKFQGRVTITADESTSTAYMELSSLRSEDTAMYYCAINTQWDLVPRWGRGTLVTVSS
VL: EIVLTQSPGTLSLAPGERATLSCRASQSVNSNYLAWYQQKPGQAPRLLIYGASSRATGIPDRFSGSGSGTDFTLTISRLEPEDFAVYYCQQYGFSLYSFGQGTKLEIK
Take B11: a half-maximal response in assay [1] (EC50) required 381 ng/mL.

B12: C065 (antibody, V domains shown)
VH: QVQLQESGPGLVKPSQTLSLTCTVSGGSISSSNYYWSWIRQHPGKGLEWIGYIDYSGGTYYNPSLKSRVTISVDTSKNQFSLKLSSVTAADTAVYYCARVSTTVTTYLVGGFDIWGQGTMVTVSS
VL: IRMTQSPSSLSASVGDRVTITCQASQDITNYLNWYQQKPGKAPKLLLYDASNLETGVPSRFSGSGSGTDFTFTISSLQPEDIATYYCQQYDNLPWTFGQGTKVEIK
With B12, in assay [1], the midpoint of the response, the EC50, lay at 29.1 ng/mL. This EC50 is about 13-fold lower than that of the molecule before.

B13: C083 (antibody, V domains shown)
VH: EVQLVESGGGLVKPGGSLRLSCAASGFTFSSYSMNWVRQAPGKGLEWVSSISSSTSYIYYADSVKGRFTISRDNAKNSLYLQMNSLRAEDTAVYYCARERYGDNWGQGTLVTVSS
VL: QLVLTQSPSASASLGASVKLTCTLSSGHSSYAIAWHQQQPEKGPRYLMSLNSDGSHSKGDGIPDRFSGSSSGAERYLTISSLQSEDEADYYCQTWGPWVFGGGTKLTVL
As for B13, in assay [1], the EC50 was found to be 25.1 ng/mL. This EC50 and that of the molecule before are within 1.5-fold of each other.

B14: C091 (antibody, V domains shown)
VH: QVQLVQSGAEVKKPGSSVKVSCKASGGTFSSYTISWVRQAPGQGLEWMGRIIPILGIANYAQKFQGRVTITADKSTSTAYMELSSLRSEDTAVYYCARDSGYSGYGSTYYMDVWGKGTTVTVSS
VL: QSVLTQPPSVSGAPGQRVTISCTGSSSNIGAGYDVHWYQQLPGTAPKLLIYGNSNRPSGVPDRFSGSKSGTSASLAITGLQAEDEADYYCQSYDSSLSGSVFGTVTKVTVL
For the molecule B14, the EC50 in assay [1] was determined as 89.5 ng/mL.

B15: C092 (antibody, V domains shown)
VH: QVQLVQSGAEVKKPGSSVKVSCKASGGSFTNHFISWVRQAPGQGLEWMGRIIPILGTANYAQNFQGRVMMTADKSTSTAYMELSSLRSEDTAVYYCARDSGYSGYGSTYYMDVWGKGTTVTVSS
VL: QSVLTQPPSVSGAPGQRVTISCTGSNSNIGAGYDVHWYQQLPGAAPKLLIYGNNNRPSGVPDRFSGSKSDTSASLAITGLQVEDEADYYCQSYDSSLSDSVFGSGTKVTVL
With B15, the EC50 in assay [1] was found to be 7.07 ng/mL. This EC50 is about 13-fold lower than that of the molecule before.

B16: C522 (antibody, V domains shown)
VH: EVQLVESGGGLIQPGGSLRLSCAASEFIVSRNYMSWVRQAPGKGLEWVSVIYSGGSTFYADSVKGRFTISRDESKNTLYLQMNSLRAEDTAIYYCARDRGGGILDYWGQGTLVTVS
VL: DIQMTQSPSSLSASVGDRVTITCQASQDINIFLNWYQQKPGKAPKLLIYDASSLETGVPSRFSGSGSGTDFTFTISSLQPEDFATYYCQQYGNLPKYTFGQGTKLEIK
Molecule B16 yielded an EC50 in assay [1] of 0.93 ng/mL.

B17: C051 (antibody, V domains shown)
VH: EVQLVESGGGLIQAGGSLRLSCAASGFGVRNNYMSWVRQAPGKGLEWVSVIYSGGTTYYADSVKGRFTISRDNSKNTVFLQMNSLRAEDTAVYYCAREGDVEGFSDLWSGYSRDRYYFDYWGQGTLVTVSS
VL: QSALTQPASVSGSPGQSITFSCTGTSSDVGGYNYVSWYQQYPGKAPKLLIYDVTNRPSGVSDRFSGSKSGNTASLTISGLQAEDEADYYCSSFTSSNTRVFGTGTKVTVL
Molecule B17 gave an EC50 in assay [2] of 1.65 ng/mL.

B18: C032 (antibody, V domains shown)
VH: EVQLVQSGAEVKKPGESLKISCKGSGYSFTSYWIGWVRQMPGKGLEWMGIIYPGDSDTRYSPSFQGQVTISADKSISTAYLQWSSLKASDTAMYYCARGVAVDWYFDLWGRGTLVTVSS
VL: QSVLTQPPSVSGAPGQRVTISCTGSSSNIGAGYDVHWYQQLPGTAPKLLIYGNSNRPSGVPDRFSGSKSGTSASLAITGLQAEDEADYYCQSYDSSLSALYVFGTGTKVTVL
Regarding B18, a half-maximal response in assay [1] (EC50) required 17.3 ng/mL.

B19: C080 (antibody, V domains shown)
VH: EVQLVQSGAEVKKPGESLNISCKASGYSFTIYWIAWVRQLPGKGLEWMGIIYPGDSDTRYSPSFQGQVTISADKSISTAYLQWRSLKASDSAVYYCARGVAVDWYFDLWGRGTLVTVSS
VL: QSVLTQPPSVSGAPGQRVTISCAGSSSNIGAGFDVYWYQQLPGTAPKLLIYGNNNRPSGVPDRFSGSKSGTSASLAITGLQAEDEADYYCQSSGSVLSDLYVFGTGTKVTVL
In the case of B19, in assay [1], a half-maximal response (EC50) required 1.97 ng/mL.

B20: C094 (antibody, V domains shown)
VH: QVQLQESGPGLVKPSETLSLTCNVSGVSISTDYWSWIRQPPGKGLEWIGYIYYSGNTKDYNPSLKSRVTISVDTSKNQFSLMLSSVTAADTAVYYCARHYDILTSLSWFDPWGQGTLVTVSS
VL: QSVLTQPPSVSAAPGQKVTISCSITNSNLGNIYVSWYQQLPGTAPKLLIYGNNKRPSGIPDRFSGSKSGTSATLGITGLQTGDEAHYYCGTWDSSLSANWVFGGGTKLTVL
On to B20, for which the midpoint of the response in assay [1], the EC50, lay at 1.67 ng/mL.

B21: C521 (antibody, V domains shown)
VH: EVQLVESGGGLVRPGGSLTLSCVASGFTVGSNFMSWVRQAPGKGLEWVSLIYNSGGTHYADSVKGRFTISRDRSKNTLYLQMNSLRAEDTAIYYCANHGYYYYMDVWGKGTTVTVS
VL: QSALTQPASVSGSPGQSITISCTGTGSDIGAYNYVSWHQHHPGKAPKLIIYDVSNRPSGVSNRFSGSKSGNTASLTISGLQAEDEADYYCTSYTNTTTPWVFGGGTKVTVL
In turn, B21 yielded an EC50 in assay [1] of 6.9 ng/mL.
